Assay results: PMC5418627

Target: T1, IRF3 (human (endogenous in HEK293T)), Q14653
T1 chain: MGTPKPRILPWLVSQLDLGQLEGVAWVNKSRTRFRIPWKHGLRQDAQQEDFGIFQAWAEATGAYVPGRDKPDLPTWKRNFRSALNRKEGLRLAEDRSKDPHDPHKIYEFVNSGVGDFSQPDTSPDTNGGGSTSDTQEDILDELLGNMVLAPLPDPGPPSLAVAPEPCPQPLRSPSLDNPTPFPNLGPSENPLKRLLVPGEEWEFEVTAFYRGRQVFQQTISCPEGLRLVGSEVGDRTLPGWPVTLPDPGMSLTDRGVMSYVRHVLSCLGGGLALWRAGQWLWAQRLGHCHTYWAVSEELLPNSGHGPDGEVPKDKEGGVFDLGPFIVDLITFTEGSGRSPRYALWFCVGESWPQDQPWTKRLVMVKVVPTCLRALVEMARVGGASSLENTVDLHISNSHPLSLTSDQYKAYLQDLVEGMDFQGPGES
Assay: native gel or EMSA; cell-free assay: HEK293T S1 crude lysate with vRNA, 30 °C, 1 h; Native-PAGE and immunoblotting of IRF3
Settings: remark: other sources report otherwise

B1: IRF3, Q14653 1-427 (natural protein)
chain: T1 chain
stoichiometry N: 2
